Source: IntAct's records for PubMed 26455797

B1: CCAAT/enhancer-binding protein alpha (Homo sapiens), P49715-1 (parent)
chain: MESADFYEAEPRPPMSSHLQSPPHAPSSAAFGFPRGAGPAQPPAPPAAPEPLGGICEHETSIDISAYIDPAAFNDEFLADLFQHSRQQEKAKAAVGPTGGGGGGDFDYPGAPAGPGGAVMPGGAHGPPPGYGCAAAGYLDGRLEPLYERVGAPALRPLVIKQEPREEDEAKQLALAGLFPYQPPPPPPPSHPHPHPPPAHLAAPHLQFQIAHCGQTTMHLQPGHPTPPPTPVPSPHPAPALGAAGLPGPGSALKGLGAAHPDLRASGGSGAGKAKKSVDKNSNEYRVRRERNNIAVRKSRDKAKQRNVETQQKVLELTSDNDRLRKRVEQLSRELDTLRGIFRQLPESSLVKAMGNCA
partner: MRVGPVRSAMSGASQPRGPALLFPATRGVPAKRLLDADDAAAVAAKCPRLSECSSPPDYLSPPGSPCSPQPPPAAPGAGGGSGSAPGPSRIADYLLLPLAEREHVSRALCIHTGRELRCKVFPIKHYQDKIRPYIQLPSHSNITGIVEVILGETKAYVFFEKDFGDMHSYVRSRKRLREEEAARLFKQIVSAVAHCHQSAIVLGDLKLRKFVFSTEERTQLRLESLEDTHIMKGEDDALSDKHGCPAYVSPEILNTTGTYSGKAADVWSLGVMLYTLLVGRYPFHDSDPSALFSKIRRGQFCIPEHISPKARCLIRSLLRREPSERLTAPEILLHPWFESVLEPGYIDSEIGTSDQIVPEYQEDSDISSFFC

Variants of: B1
Conditions: with TRIB1, Q96RU8-1

| Variant | effect of a mutation on the interaction |
| --- | --- |
| MESADFYEAEPRPPMSSHLQSPPHAPSSAAFGFPRGAGPAQPPAPPAAPEPLGGICEHETSIDISAAIDPAAFNDEFLADLFQHSRQQEKAKAAVGPTGGGGGGDFDYPGAPAGPGGAVMPGGAHGPPPGYGCAAAGYLDGRLEPLYERVGAPALRPLVIKQEPREEDEAKQLALAGLFPYQPPPPPPPSHPHPHPPPAHLAAPHLQFQIAHCGQTTMHLQPGHPTPPPTPVPSPHPAPALGAAGLPGPGSALKGLGAAHPDLRASGGSGAGKAKKSVDKNSNEYRVRRERNNIAVRKSRDKAKQRNVETQQKVLELTSDNDRLRKRVEQLSRELDTLRGIFRQLPESSLVKAMGNCA [Y67A] | decreasing interaction strength |
| MESADFYEAEPRPPMSSHLQSPPHAPSSAAFGFPRGAGPAQPPAPPAAPEPLGGICEHETSIDDSAYIDPAAFNDEFLADLFQHSRQQEKAKAAVGPTGGGGGGDFDYPGAPAGPGGAVMPGGAHGPPPGYGCAAAGYLDGRLEPLYERVGAPALRPLVIKQEPREEDEAKQLALAGLFPYQPPPPPPPSHPHPHPPPAHLAAPHLQFQIAHCGQTTMHLQPGHPTPPPTPVPSPHPAPALGAAGLPGPGSALKGLGAAHPDLRASGGSGAGKAKKSVDKNSNEYRVRRERNNIAVRKSRDKAKQRNVETQQKVLELTSDNDRLRKRVEQLSRELDTLRGIFRQLPESSLVKAMGNCA [I64D] | decreasing interaction strength |
| MESADFYEAEPRPPMSSHLQSPPHAPSSAAFGFPRGAGPAQPPAPPAAPEPLGGICEHATSIDISAYIDPAAFNDEFLADLFQHSRQQEKAKAAVGPTGGGGGGDFDYPGAPAGPGGAVMPGGAHGPPPGYGCAAAGYLDGRLEPLYERVGAPALRPLVIKQEPREEDEAKQLALAGLFPYQPPPPPPPSHPHPHPPPAHLAAPHLQFQIAHCGQTTMHLQPGHPTPPPTPVPSPHPAPALGAAGLPGPGSALKGLGAAHPDLRASGGSGAGKAKKSVDKNSNEYRVRRERNNIAVRKSRDKAKQRNVETQQKVLELTSDNDRLRKRVEQLSRELDTLRGIFRQLPESSLVKAMGNCA [E59A] | decreasing interaction strength |
| MESADFYEAEPRPPMSSHLQSPPHAPSSAAFGFPRGAGPAQPPAPPAAPEPLGGICEHETSDDISAYIDPAAFNDEFLADLFQHSRQQEKAKAAVGPTGGGGGGDFDYPGAPAGPGGAVMPGGAHGPPPGYGCAAAGYLDGRLEPLYERVGAPALRPLVIKQEPREEDEAKQLALAGLFPYQPPPPPPPSHPHPHPPPAHLAAPHLQFQIAHCGQTTMHLQPGHPTPPPTPVPSPHPAPALGAAGLPGPGSALKGLGAAHPDLRASGGSGAGKAKKSVDKNSNEYRVRRERNNIAVRKSRDKAKQRNVETQQKVLELTSDNDRLRKRVEQLSRELDTLRGIFRQLPESSLVKAMGNCA [I62D] | decreasing interaction strength |
| MESADFYEAEPRPPMSSHLQSPPHAPSSAAFGFPRGAGPAQPPAPPAAPEPLGGICEHETAIDISAYIDPAAFNDEFLADLFQHSRQQEKAKAAVGPTGGGGGGDFDYPGAPAGPGGAVMPGGAHGPPPGYGCAAAGYLDGRLEPLYERVGAPALRPLVIKQEPREEDEAKQLALAGLFPYQPPPPPPPSHPHPHPPPAHLAAPHLQFQIAHCGQTTMHLQPGHPTPPPTPVPSPHPAPALGAAGLPGPGSALKGLGAAHPDLRASGGSGAGKAKKSVDKNSNEYRVRRERNNIAVRKSRDKAKQRNVETQQKVLELTSDNDRLRKRVEQLSRELDTLRGIFRQLPESSLVKAMGNCA [S61A] | decreasing interaction strength |
| MESADFYEAEPRPPMSSHLQSPPHAPSSAAFGFPRGAGPAQPPAPPAAPEPLGGICEHETSIDISAYDDPAAFNDEFLADLFQHSRQQEKAKAAVGPTGGGGGGDFDYPGAPAGPGGAVMPGGAHGPPPGYGCAAAGYLDGRLEPLYERVGAPALRPLVIKQEPREEDEAKQLALAGLFPYQPPPPPPPSHPHPHPPPAHLAAPHLQFQIAHCGQTTMHLQPGHPTPPPTPVPSPHPAPALGAAGLPGPGSALKGLGAAHPDLRASGGSGAGKAKKSVDKNSNEYRVRRERNNIAVRKSRDKAKQRNVETQQKVLELTSDNDRLRKRVEQLSRELDTLRGIFRQLPESSLVKAMGNCA [I68D] | decreasing interaction strength |
| MESADFYEAEPRPPMSSHLQSPPHAPSSAAFGFPRGAGPAQPPAPPAAPEPLGGACEHETSIDISAYIDPAAFNDEFLADLFQHSRQQEKAKAAVGPTGGGGGGDFDYPGAPAGPGGAVMPGGAHGPPPGYGCAAAGYLDGRLEPLYERVGAPALRPLVIKQEPREEDEAKQLALAGLFPYQPPPPPPPSHPHPHPPPAHLAAPHLQFQIAHCGQTTMHLQPGHPTPPPTPVPSPHPAPALGAAGLPGPGSALKGLGAAHPDLRASGGSGAGKAKKSVDKNSNEYRVRRERNNIAVRKSRDKAKQRNVETQQKVLELTSDNDRLRKRVEQLSRELDTLRGIFRQLPESSLVKAMGNCA [I55A] | decreasing interaction strength |
